# US20140363844
# T1: Presegetalin A1[14,32]
# T1 chain: GVPVWAFQAKDVENASAPV
# T2: Presegetalin A1[14,32]K23A
# T2 chain: GVPVWAFQAADVENASAPV
# T3: Presegetalin A1[14,32]N27A
# T3 chain: GVPVWAFQAKDVEAASAPV
# T4: Presegetalin A1[14,32]P16A
# T4 chain: GVAVWAFQAKDVENASAPV
# T5: Presegetalin A1[14,32]P16p
# T5 chain: GVPVWAFQAKDVENASAPV
# T6: Presegetalin A1[14,32]Q21A
# T6 chain: GVPVWAFAAKDVENASAPV
# T7: Presegetalin A1[14,32]S29A
# T7 chain: GVPVWAFQAKDVENAAAPV
# T8: Presegetalin A1[14,32]V15A
# T8 chain: GAPVWAFQAKDVENASAPV
# T9: Presegetalin A1[14,32]V15v
# T9 chain: GVPVWAFQAKDVENASAPV
# T10: Presegetalin A1[14,32]V17A
# T10 chain: GVPAWAFQAKDVENASAPV
# T11: Presegetalin A1[14,32]V25A
# T11 chain: GVPVWAFQAKDAENASAPV
# T12: Presegetalin A1[14,32]W18A
# T12 chain: GVPVAAFQAKDVENASAPV
# T13: Presegetalin D1[14,31]
# T13 chain: GLSFAFPAKDAENASSPV
# T14: Presegetalin D1[14,31]P20Q
# T14 chain: GLSFAFQAKDAENASSPV
# T15: Presegetalin F1[14,38]
# T15 chain: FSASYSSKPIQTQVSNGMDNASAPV
# T16: Presegetalin G1[14,31]
# T16 chain: GVKYAFQPKDSENASAPV
# T17: Presegetalin H1[14,31]
# T17 chain: GYRFSFQAKDAENASAPV
# T18: Presegetalin L1[14,32]
# T18 chain: GLPGWPFQAKDVENASAPV
# Tests used:
# [1] = target: T1, Presegetalin A1[14,32]
# [2] = target: T2, Presegetalin A1[14,32]K23A
# [3] = target: T3, Presegetalin A1[14,32]N27A
# [4] = target: T4, Presegetalin A1[14,32]P16A
# [5] = target: T5, Presegetalin A1[14,32]P16p
# [6] = target: T6, Presegetalin A1[14,32]Q21A
# [7] = target: T7, Presegetalin A1[14,32]S29A
# [8] = target: T8, Presegetalin A1[14,32]V15A
# [9] = target: T9, Presegetalin A1[14,32]V15v
# [10] = target: T10, Presegetalin A1[14,32]V17A
# [11] = target: T11, Presegetalin A1[14,32]V25A
# [12] = target: T12, Presegetalin A1[14,32]W18A
# [13] = target: T13, Presegetalin D1[14,31]
# [14] = target: T14, Presegetalin D1[14,31]P20Q
# [15] = target: T15, Presegetalin F1[14,38]
# [16] = target: T16, Presegetalin G1[14,31]
# [17] = target: T17, Presegetalin H1[14,31]
# [18] = target: T18, Presegetalin L1[14,32]
protein,measurement,setting,value
"Saponaria vaccaria PCY1 (recombinant, N-terminal His6-tag, expressed in E. coli from pCB008) (protein) MATSGFSKPLHYPPVRRDETVVDDYFGVKVADPYRWLEDPNSEETKEFVDNQEKLANSVLEECELIDKFKQKIIDFVNFPRCGVPFRRANKYFHFYNSGLQAQNVFQMQDDLDGKPEVLYDPNLREGGRSGLSLYSVSEDAKYFAFGIHSGLTEWVTIKILKTEDRSYLPDTLEWVKFSPAIWTHDNKGFFYCPYPPLKEGEDHMTRSAVNQEARYHFLGTDQSEDILLWRDLENPAHHLKCQITDDGKYFLLYILDGCDDANKVYCLDLTKLPNGLESFRGREDSAPFMKLIDSFDASYTAIANDGSVFTFQTNKDAPRKKLVRVDLNNPSVWTDLVPESKKDLLESAHAVNENQLILRYLSDVKHVLEIRDLESGALQHRLPIDIGSVDGITARRRDSVVFFKFTSILTPGIVYQCDLKNDPTQLKIFRESVVPDFDRSEFEVKQVFVPSKDGTKIPIFIAARKGISLDGSHPCEMHGYGGFGINMMPTFSASRIVFLKHLGGVFCLANIRGGGEYGEEWHKAGFRDKKQNVFDDFISAAEYLISSGYTKARRVAIEGGSNGGLLVAACINQRPDLFGCAEANCGVMDMLRFHKFTLGYLWTGDYGCSDKEEEFKWLIKYSPIHNVRRPWEQPGNEETQYPATMILTADHDDRVVPLHSFKLLATMQHVLCTSLEDSPQKNPIIARIQRKAAHYGRATMTQIAEVADRYGFMAKALEAPWID",LP (linear peptide product detected by LC/MS),[1],+
same,PCY1 activity (total amount of segetalin A produced),[1],3 nmol/mg of protein/min
same,formation of segetalin A and linear segetalin A (LC/MS),[1],"purified PCY1 showed the formation of segetalin A and linear segetalin A in the presence of presegetalin A1[14,32]"
same,CP (cyclic peptide product detected by LC/MS),[2],+
same,LP (linear peptide product detected by LC/MS),[2],+
same,linear segetalin A production relative to WT substrate,[2],showed a relative increase in production of linear segetalin A
same,segetalin A production relative to WT substrate,[2],"positions were found to be sensitive to substitution ... position 20, 21, 23, 24, 27, 28 and 31"
same,CP (cyclic peptide product detected by LC/MS),[3],+
same,LP (linear peptide product detected by LC/MS),[3],+
same,linear segetalin A production relative to WT substrate,[3],showed a relative increase in production of linear segetalin A
same,segetalin A production relative to WT substrate,[3],"positions were found to be sensitive to substitution ... position 20, 21, 23, 24, 27, 28 and 31"
same,CP (cyclic peptide product detected by LC/MS),[4],+
same,LP (linear peptide product detected by LC/MS),[4],+
same,CP (cyclic peptide product detected by LC/MS),[5],+
same,LP (linear peptide product detected by LC/MS),[5],-
same,CP (cyclic peptide product detected by LC/MS),[6],+
same,LP (linear peptide product detected by LC/MS),[6],+
same,linear segetalin A production relative to WT substrate,[6],a relative increase in production of linear segetalin A from all mutant substrates except with No. 13 and No. 14
same,segetalin A production relative to WT substrate,[6],"positions were found to be sensitive to substitution ... position 20, 21, 23, 24, 27, 28 and 31"
same,CP (cyclic peptide product detected by LC/MS),[7],+
same,LP (linear peptide product detected by LC/MS),[7],+
same,linear segetalin A production relative to WT substrate,[7],showed a relative increase in production of linear segetalin A
same,segetalin A production relative to WT substrate,[7],"yielded a 30% increase in segetalin A production relative to wild type presegetalin A1[14,32]"
same,CP (cyclic peptide product detected by LC/MS),[8],+
same,LP (linear peptide product detected by LC/MS),[8],+
same,CP (cyclic peptide product detected by LC/MS),[9],+
same,LP (linear peptide product detected by LC/MS),[9],+
same,CP (cyclic peptide product detected by LC/MS),[10],+
same,LP (linear peptide product detected by LC/MS),[10],+
same,CP (cyclic peptide product detected by LC/MS),[11],+
same,LP (linear peptide product detected by LC/MS),[11],+
same,linear segetalin A production relative to WT substrate,[11],showed a relative increase in production of linear segetalin A
same,segetalin A production relative to WT substrate,[11],"substitutions at positions 25, 26 and 29 (No. 18, 19 and 22) yielded relatively higher amounts of segetalin A than that produced from WT substrate"
same,CP (cyclic peptide product detected by LC/MS),[12],+
same,LP (linear peptide product detected by LC/MS),[12],-
same,CP (cyclic peptide product detected by LC/MS),[13],+
same,LP (linear peptide product detected by LC/MS),[13],+
same,CP (cyclic peptide product detected by LC/MS),[14],+
same,LP (linear peptide product detected by LC/MS),[14],-
same,cyclic peptide product (LC/MS),[14],"resulted in a 5 amino acid cyclic peptide product (cyclo(GLSFA); SEQ ID NO: 77), and the substituted glutamine was not part of the final cyclic peptide"
same,CP (cyclic peptide product detected by LC/MS),[15],+
same,LP (linear peptide product detected by LC/MS),[15],-
same,CP (cyclic peptide product detected by LC/MS),[16],+
same,LP (linear peptide product detected by LC/MS),[16],-
same,CP (cyclic peptide product detected by LC/MS),[17],+
same,LP (linear peptide product detected by LC/MS),[17],-
same,CP (cyclic peptide product detected by LC/MS),[18],+
same,LP (linear peptide product detected by LC/MS),[18],-
